Measurements reported in the DeepSol protein solubility set.

Experiment: soluble on expression in E. coli; label from the status in PepcDB or PDB records

Question: With “MGSDKIHHHHHHMKNHTYKEIKNIYGKISPFEFKDKLIDIAKYTAKENNRELLDAGRGNPNWTCSTAREAFFTFGHFAITETRSNWDLGHLAGMPQKKGIKERFFKFINENIDMPGAYLARDIINFGINELGFDGDEFVHELADGIIGDNYPLPDRMLPHMEKIVHDYLVQEMKYDISGKYGDVEIFAVEGATAAMCYIFDSLMANELLKKGDTIALMTPIFTPYLEIPNLPRYDFKVVNINANEVDEKGAHTWQYTKKELEKLRDKSIKALFVVNPNNPASIAMDETSCNNLIDVIENYNKDLMIISDDVYGTFVEDFSSLMSKLPYNTVGVYSYSKYFGVTGWRLGTFALHKKNVFDKKINDLTGELKKSVDKRYSDMSLNPSSLSFMERVVADSRLVALNHTAGLSTPQQVQMAFFSAFALIDKVDAYKKLNMSICHRRQKLLFEALELPINENKNNAAYYTQFDIEEWAKLNYGEDLFKFISKTASPVDVLYKLANDYSVVLLSGNGFYGPEWSIRISLANLYDEAYTKIGKAIREILNGYIVEWQKIKK” as the sequence, how does the “soluble on expression in E. coli” value read?
Answer: The value was “not soluble”.

Question: Which “soluble on expression in E. coli” value does the source give for “MLICNSSFPYLQVDYKIGVKGLLAKSKEDIDKCCKGEYFMQLKYVDTKEEIIAINRKSKHIEPHLHNALEIVCVTSGSLELGVGQELYHMEKGDIGFVFPDVIHHYQVLTPGVNKATYLIASPFSIDKFADIMQSMAPEYPIIKAEKVEPEVYRVINAILETEQSDITVAQAYLQIVLARCIGKLNLVEKSSVGSNDLIYQTVSYISANFKKKFSLEEMAKDLGVGKYVLSRLFSKTFHRNFNQYLNDARLNYACHRLENTSDSITNICLDSGFESQRTFNRVFKEKYKISPSDYRSTCVKEMLS” here?
Answer: The value was “not soluble”.

Question: For “MVTLYGIKNCDTIKKARRWLEANNIDYRFHDYRVDGLDSELLNGFINELGWEALLNTRGTTWRKLDETTRNKITDAASAAALMTEMPAIIKRPLLCAPGKPMLLGFSDSSYQQFFHEV”, which “soluble on expression in E. coli” value is on record?
Answer: Its value is “not soluble”.

Question: With “MGSDKIHHHHHHMEFYERAKKYEYKFTDTEDMIIEYMRKNKEEIVKLSIQSLADKFFTVPNTIVRLCKKMEYDGFSQLKNNLKEELKNENKEPKNGFESDIKKTLELIDYEKINKVADIIQKSRSIIVYGIGQNIPLCEILVKEIRGGHDNITYYSQRHEVLHDIGKLGEQDMFFALSLSGETKEVIEAAKTAVNKGCKVVALTHICENQLQQIADISLYCYSTIKQVNGYNISDKVPIMMIMRAIIEQYWLR” as the sequence, how does the “soluble on expression in E. coli” value read?
Answer: The value was “not soluble”.

Question: Which “soluble on expression in E. coli” value does the source give for “MERITVTLGERSYPITIAAGLFNEPASFLPLKSGDQVMLVTNETLAPLYLDKVRGVLERAGVNVDSVILPDGEQYKSLTVLDTVFTALLKKPHGRDTTLVALGGGVIGDLTGFAAASYQRGVRFIQVPTTLLSQVDSSVGGKTAVNHPLGKNMIGAFYQPASVVVDLDCLKTLPARELTSGLAEVIKYGIILDADFFTWLEGNLDALLRLDGPAMAYCIRRCCELKAEVVAADEREAGLRALLNLGHTFGHAIEAEMGYGNWLHGEAVAAGIVMAARASERLGQFSSADTQRIIALLERAGLPVNGPCEMSAQDYLPHMLRDKKVLAGELRLVLPLAIGKSEVRGGVSHEVVLSAIADCQQA” here?
Answer: The value was “not soluble”.

Question: With “GVKLQQSGPEVVKPGASVKISCKASGYSFTNFYIHWVKQRPGQGLEWIGWIFHGSDNTEYNEKFKDKATLTADTSSSTAYMQLSSLTSEDSAVYFCARWGPHWYFDVWGQGTTVTVSSAKTTPPSVYPLAPGNSMVTLGCLVKGYFPEPVTVTWNSGSLSSGVHTFPAVLQSDLYTLSSSVTVPSSTWPSETVTCNVAHPASSTKVDKKIAAAG” as the sequence, how does the “soluble on expression in E. coli” value read?
Answer: Its value is “soluble”.

Question: For “MVYDLAIIGGGINGCGIARDAAGRGHSVFLCEMNDLASGTSSWSTKLIHGGLRYLEYFEFRLVREALIERERLWQIAPHIIGPLRFVLPHHDGLRPAWRLRLGLFMYDYLGGRKLLPPTRSVDLAHDEVGKPLIPGRYTKGFEYSDCFVDDARLVVLTARDAAERGAEIRTRTRAVQVSQQGGIWQVTLEDVGSGARSTIQARALVNAAGPWVEGVLRSGAGVDARYKVRLVQGSHIVTRKLYDHDRAYIFQNADGRIVFAIPYQGDFTLIGTTDRDYHGDPSQVKATPEEIDYLCKAVSGYFAKPVTPADVVWTFSGVRPLYDDGASEAKAATRDYVFELDTPGGAPLLSIYGGKITTYRRLAEEALEKLSSYLKGGTAKQGWTAHQPLPGGDFPVDGGPALIGDLLREYPFLASAHASRLVHAYGTRARDVLGSAKSAADLGRDFGATLTEAEVRYLMSREWACSADDIVWRRSKLGLRLTPAAVAALDEWVIVHRAAEKPQQQAGGRALEHHHHHH”, which “soluble on expression in E. coli” value is on record?
Answer: Its value is “not soluble”.

Question: Which “soluble on expression in E. coli” value does the source give for “MSLDFRDYMVKQVAARSGYQLQLDGPLRWHVWPQLSILSGRMSLTAQGASQPLVRADNMRLDVALLPLLSHQLSVKQVMLKGAVIQLTPQTEAVRSEDAPVAPRDNTLPDLSDDRGWSFDISSLKVADSVLVFQHEDDEQVTIRNIRLQMEQDPQHRGSFEFSGRVNRDQRDLTISLNGTVDASDYPHDLTAAIEQINWQLQGADLPKQGIQGQGSFQAQWQESHKRLSFNQISLTANDSTLSGQAQVTLTEKPEWQLRLQFPQLNLDNLIPLNETANGENGAAQQGQSQSTLPRPVISSRIDEPAYQGLQGFTADILLQASNVRWRGMNFTDVATQMTNKSGLLEITQLQGKLNGGQVSLPGTLDATSINPRINFQPRLENVEIGTILKAFNYPISLTGKMSLAGDFSGADIDADAFRHNWQGQAHVEMTDTRMEGMNFQQMIQQAVERNGGDVKAAENFDNVTRLDRFTTDLTLKDGVVTLNDMQGQSPVLALTGEGMLNLADQTCDTQFDIRVVGGWNGESKLIDFLKETPVPLRVYGNWQQLNYSLQVDQLLRKHLQDEAKRRLNDWAERNKDSRNGKDVKKLLEKMEGHHHHHH” here?
Answer: The value was “soluble”.

Question: Which “soluble on expression in E. coli” value does the source give for “MNPALESLLADADLCVKCGLCSPHCPTYRQTADENESPRGRIALIQGWATGRLSLTAALRGPLDDCLLCRNCEAVCPAKVPYSRLVDRFRAETGQRRKPLEHHHHHH” here?
Answer: The value was “not soluble”.

Question: For “MTVYLRKAEPSDLPDILAIIEDGRRTLQKSGIPQWQNGDGPNQEILAKDIDQQTCYILMVEDALAGVGVLCSEIDPAYEAIFNGSWQPHSQTTYTAIHCVALKSSFQGQGLALVLLRSLVTAARLQGATDIRIDTHPQNLAMQHLIKKAGFVYQGDVILDVNDGERYAYQMILK”, which “soluble on expression in E. coli” value is on record?
Answer: The value was “not soluble”.

Question: For AFTCHCRRSCYSTEYSYGTCTVMGINHRFCCL, which “soluble on expression in E. coli” value is on record?
Answer: Its value is “soluble”.

Question: With “MGSDKIHHHHHHMNPKKLKQLKKRVKKQAGAPYIQQLMKYRDLFKDDPQILVLINNVLESDRLLAAGLAPQQLPVLEIPDDFQDHLFERINQQYAMGDPAGDAAWNQLSAALPKVDQLLRNFRDYIEDQYGMWAYISAPFLKDLADFTGSAPVLEVMAGNGYISKGLKRLHPGQPIYTTDSKDWTHETGNQTGRHPVTTIEALDAVSAFNKYAATIKYVIMAWSPDKLTIDWDLLQAMRQSPYDIPLIVIGEKYGATGSKQFWDHANYQDNEAVTKLNAHFRPFDLIHDHVYVVR” as the sequence, how does the “soluble on expression in E. coli” value read?
Answer: Its value is “not soluble”.

Question: For “MILLFGGTTEGRQAAALCDRLGLPFIYSTKTRVEPFATACGEFRHGALDEAALSELVSSSGVRLVIDAAHPFAARLHRSLFEVCQHLAVRLIRFDRPSVDVPDFEGLHSVADFTEALALLDRLNPAKLLALTGVQSIAPLRPWWEQHDMLLRILPTQASMELARREGIPEAQLLPMNPDSSDEALEKLVRKHGVDCLLAKESGESGFFSSKLRVAERCAIPLIVIRRPPAPAYDVVATSVEELEALLPD”, which “soluble on expression in E. coli” value is on record?
Answer: Its value is “soluble”.

Question: With “MIIDCHGHYTTAPAAHDAFRKAQIAHHDDPQQPAPQYPHISDDALRESIEQHQLRLLRERGADMTIFSPRASTMAHHIGNEAVSQVWTQRCNDLIARVVQLYPHTFIGVCQLPQSPGVPISHSIAELERCVNELGFVGCNLNPDPSGGHWNGVPLTDRAWYPFFEKMVELDVPAMVHVSGSCNANFHATGAHYLNADTTAFMQFLEGDLFRDFPSLRFIIPHGGGAVPYHWGRFRGLADMLGKPPLATHVMRNVFFDTCVYHQPGIDLLFEVIDIDNILFGSEMVGAVRGIDPQTGHYFDDTKRYIDALTISDADKRKVFEGNARRVYPRLDAQLRARGLLEHHHHHH” as the sequence, how does the “soluble on expression in E. coli” value read?
Answer: The value was “not soluble”.

Question: With “MAHHHHHHMGAKILTKIQREKLVEWENCVSVIEAAILKHKYKQKVNKNIPSLLRVQAHIRKKMV” as the sequence, how does the “soluble on expression in E. coli” value read?
Answer: Its value is “not soluble”.

Question: Which “soluble on expression in E. coli” value does the source give for “MSLKALARFGKAFGGYKMIHVPQPICGPEDVVTEIKAAAICGADMKHYNVDSGSDEFNSIRGHEFAGCIAQVGEKVKDWKVGQRVVSDNSGHVCGVCPACEQGDFLCCTEKVNLGLDNNTWGGGFSKYCLVPGEILKIHRHALWEIPDGVDYEDAAVLDPICNAYKSIAQQSKFLPGQDVVVIGTGPLGLFSVQMARIMGAVNIVVVGLQEDVAVRFPVAKELGATAVVNGSTEDVVARCQQICGKDNLGLVIECSGANIALKQAIEMLRPNGEVVRVGMGFKPLDFSINDITAWNKSIIGHMAYDSTSWRNAIRLLASGAIKVKPMITHRIGLSQWREGFDAMVDKTAIKVIMTYDFDEGHHHHHH” here?
Answer: The value was “not soluble”.

Question: Which “soluble on expression in E. coli” value does the source give for “MSQNVYQFIDLQRVDPPKKPLKIRKIEFVEIYEPFSETQAKAQADRCLSCGNPYCEWKCPVHNYIPNWLKLANEGRIMEAADLAHQTNSLPEVCGRVCPQDRLCEGSCTLNDEFGAVTIGNIERYISDKAIAMGWKPDMSHVHPTGKRVAVIGAGPAGLACADVLARNGVQAVVFDRHPEIGGLLTFGIPAFKLEKEVMIKRRKIFSEMGIEFQLNTEVGKDITMEALLKDYDAVFLGVGTYQSMRGGLENEEANGVYDALPFLIANTKQLMGYEATAHEPYINMQGKRVVVLGGGDTAMDCVRSSIRQGATDVVCAYRRDEVNMPGSKREVKNAREEGVEFKFNLQPLSIEVNSNGKVCGVRMVRTQLGAPDAQGRRMAEQIPGSEHVLPADAVVMAFGFRPHSMEWLAAHDVKLDKQGRVIAPESTDNAFQTSNPKIFAGGDIVRGSDLVVTAIAEGRKAADGIMNYLEV” here?
Answer: The value was “not soluble”.

Question: Which “soluble on expression in E. coli” value does the source give for “MDENALRFASYWRNSLADAESGKGCFERKDAQNFTHWHGIAAGRLDEAIVNKFFKGEKDDVETVNVILRPKVYFRLLQHGKDRSAGTPDIVTPIVTPALLSREGFLYPTPATSIPRDLLEPLPKGAFSIGEIGQYDKYKTTHTDPTHVMWTRP” here?
Answer: Its value is “not soluble”.

Question: With “TLPKPFIWAEPHFMVPKEKQVTICCQGNYGAVEYQLHFEGSLFAVDRPKPPERINKVKFYIPDMNSRMAGQYSCIYRVGELWSEPSNLLDLVVTEMYDTPTLSVHPGPEVISGEKVTFYCRLDTATSMFLLLKEGRSSHVQRGYGKVQAEFPLGPVTTAHRGTYRCFGSYNNHAWSFPSEPVKLLVTG” as the sequence, how does the “soluble on expression in E. coli” value read?
Answer: Its value is “soluble”.

Question: With “MELKHSISDYTEAEFLEFVKKIARAEGATECDDNKLVREFERLTEHPDGSDLIYYPRDDREDSPEGIVKEIKEWRAANGKSGFKQG” as the sequence, how does the “soluble on expression in E. coli” value read?
Answer: The value was “soluble”.

Question: Which “soluble on expression in E. coli” value does the source give for “DGVGGDPAVALPHRRFEYKYSFKGPHLVQSDGTVPFWAHAGNAIPSSDQIRVAPSLKSQRGSVWTKTKAAFENWEVEVTFRVTGRGRIGADGLAIWYAENQGLEGPVFGSADLWNGVGIFFDSFDNDGKKNNPAIVIIGNNGQIHYDHQNDGASQALASCQRDFRNKPYPVRAKITYYQNTLTVMINNGFTPDKNDYEFCAKVENMIIPAQGHFGISAATGGLADDHDVLSFLTFQLTEPGKEPPTPDKEISEKE” here?
Answer: Its value is “soluble”.

Question: With “MRGSHHHHHHGSVEVQVLIENVVFARNFVAEHGLSLLLKKGNKEIVVDTGQSENFIKNCGLMGIDVGRIKKVVLTHGHYDHIGGLKGLLERNPEVKIYTHKEILNKKYAMRKGGQFEEIGFDLSFYEKYKNNFVLIDKDAEIEEGFYVITNTDITYDNEFTTKNFFVEKEGKRIPDKFLDEVFVVVKEEDGINVVTGCSHAGILNILETARNRFGVSYIKSLIGGFHLRGMEEEKVKDIARKIEEYGVKKVLTGHCTGIDEYGFLKSVLKDKISYLTTSSSIVV” as the sequence, how does the “soluble on expression in E. coli” value read?
Answer: The value was “soluble”.

Question: For “ASCETTVTSGDTMTYSTRSISVPASCAEFTVNFEHKGHMPKTGMGHNWVLAKSADVGDVAKEGAHAGADNNFVTPGDKRVIAFTPIIGGGEKTSVKFKVSALSKDEAYTYFCSYPGHFSMMRGTLKLEE”, which “soluble on expression in E. coli” value is on record?
Answer: The value was “soluble”.
